Substitutions are numbered along the chain they refer to. One block for each compound: values may come before it.
Tests used:
[1] = target: T1, PtoCPNα (Picrophilus oshimae, UniProt Q6L132, D139G/S260C/C290S); test: fluorescence change of fluorescein on Cys260; assay type: binding; conditions: 1 mM ATP, 50 nM chaperonin, 50 mM Tris-HCl pH 7.5, 25 mM MgCl2, 100 mM KCl, 60 °C; protein labelled with fluorescein 5-maleimide
T1 construct: gene PTO0735; full length, untagged, pET23b in E. coli BL21(DE3); reassembled homo-oligomer (hexadecamer, 914 kDa); D139G from cloning; forward primer encodes MITGQTPILILKEGTERQ; locus assigned by printed order (other locus PTO1195)
T1 sequence (Q6L132 1-546 D139G/S260C/C290S): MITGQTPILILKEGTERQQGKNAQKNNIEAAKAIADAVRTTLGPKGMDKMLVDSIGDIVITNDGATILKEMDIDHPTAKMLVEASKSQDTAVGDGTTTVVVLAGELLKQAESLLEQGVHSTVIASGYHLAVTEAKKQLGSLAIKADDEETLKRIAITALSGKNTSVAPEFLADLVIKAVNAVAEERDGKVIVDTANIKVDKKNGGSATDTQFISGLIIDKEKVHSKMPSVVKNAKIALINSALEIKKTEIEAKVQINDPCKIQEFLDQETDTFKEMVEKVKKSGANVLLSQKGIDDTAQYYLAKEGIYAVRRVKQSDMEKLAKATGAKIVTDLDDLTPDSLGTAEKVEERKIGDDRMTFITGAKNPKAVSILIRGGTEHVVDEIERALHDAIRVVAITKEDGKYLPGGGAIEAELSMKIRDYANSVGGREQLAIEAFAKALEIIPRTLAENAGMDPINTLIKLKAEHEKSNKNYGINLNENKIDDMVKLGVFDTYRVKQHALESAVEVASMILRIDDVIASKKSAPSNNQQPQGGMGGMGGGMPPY

[2] = target: T2, PtoCPNα (Picrophilus oshimae, UniProt Q6L132, D139G); test: ATP-dependent refolding of acid-denatured GFP; assay type: biochemical; conditions: 1 mM ATP, 50 mM Tris-HCl pH 7.5, 25 mM MgCl2, 100 mM KCl, 50 °C (figure legend: 60 °C)
T2 construct: gene PTO0735; full length, untagged, pET23b in E. coli BL21(DE3); reassembled homo-oligomer (hexadecamer, 914 kDa); D139G from cloning; forward primer encodes MITGQTPILILKEGTERQ; locus assigned by printed order (other locus PTO1195)
T2 sequence (Q6L132 1-546 D139G): T1 sequence (Q6L132 1-546 D139G/S260C/C290S) with C260S, S290C

[3] = target: Green fluorescent protein, acid-denatured [GFP: P42212]; test: GFP releasing assay (recovery of GFP fluorescence, fit of two consecutive steps); acid-denatured GFP captured by 400 nM PtoCPNα at 60 °C for 5 min in HKM buffer with 1 mM DTT, then diluted 10-fold into the same buffer at 30 °C; k1 is the release of denatured GFP
[4] = target: α type group II CPN of Picrophilus torridus (Picrophilus torridus); test: SEC-MALS; WTC-100S5 column, 25 °C, 50 mM Tris-HCl pH 7.5, 25 mM MgCl2, 0.2 mM ATP, 300 mM (NH4)SO4, 1 mM DTT, 1.0 mL/min; purified oligomers
[5] = target: Green fluorescent protein, acid-denatured [GFP: P42212]; test: GFP releasing assay (recovery of GFP fluorescence, fit of two consecutive steps); acid-denatured GFP captured by 400 nM PtoCPNα at 60 °C for 5 min in HKM buffer with 1 mM DTT, then diluted 10-fold into the same buffer at 50 °C; k1 is the release of denatured GFP
[6] = target: β type group II CPN of Picrophilus torridus (Picrophilus torridus); test: SEC-MALS; WTC-100S5 column, 25 °C, 50 mM Tris-HCl pH 7.5, 25 mM MgCl2, 0.2 mM ATP, 300 mM (NH4)SO4, 1 mM DTT, 1.0 mL/min; purified oligomers

Compound: Nc1ncnc2c1ncn2[C@@H]1O[C@H](COP(=O)(O)OP(=O)(O)OP(=O)(O)O)[C@@H](O)[C@H]1O [ATP]
% decrease in maximal fluorescence intensity [1]: ~ 15.5%
ATP-dependent refolding of acid-denatured GFP [2]: enhances its refolding in an ATP‐dependent manner

koff [3]: 0.478 s⁻¹
stoichiometry N [4]: 16
koff [5]: 0.118 s⁻¹
Compound: α type group II CPN of Picrophilus torridus (complex)

stoichiometry N [6]: 14
Compound: β type group II CPN of Picrophilus torridus (complex)

— paper PMC4932455, “Characterization of group II chaperonins from an acidothermophilic archaeon Picrophilus torridus” (FEBS Open Bio, 2016)
